Several values for one entry are separate records, joined by “and”; a condition that tells them apart may be missing. Identical values can stand only once.
Target: PKA regulatory subunit RIIα (UniProt P12367)
Assay: native MS; components mixed at equimolar (1:1) ratio in 200 mM NH4OAc, equilibrated at least 10 min at room temperature; nESI on a Synapt G2-Si, 2-5 uM sample; single proteins sprayed alone too; some C + R samples preincubated with staurosporine, K252a or AT13148 before PKI

stoichiometry N: 3 and 4 and 2
Substance: PKA regulatory subunit RIIα (from UniProt P12367 1-401) (natural protein)
